Measurements taken from article PMC7666536 (Cell, 2020).

Biological target: SARS-CoV-2 nsp12 (RNA-dependent RNA polymerase) (SARS-CoV-2, UniProt P0DTD1)
Test: cryo-EM structure

B1: SARS-CoV-2 nsp9 (full-length, residues N1–Q113) (natural protein)
chain: NNELSPVALRQMSCAAGTTQTACTDDNALAYYNTTKGGRFVLALLSDLQDLKWARFPKSDGTGTIYTELEPPCRFVTDTPKGPKVKYLYFIKGLNNLNRGMVLGSLAATVRLQ
binding result: binds
